For one substance, Kd results are on record in patent US20030206905A1.

In the experiment the target is 161P2F10b (UniProt O14638). In words: saturation binding ELISA; relative affinity. Background: An ELISA detects its analyte on a solid surface through an enzyme-linked reagent.

For orientation: Kd means the free concentration of one partner at which half of the binding sites on the other are occupied at equilibrium, for simple one-to-one binding. As to 97A6(CD203c), the Kd came out at 0.28 nM.
